Drawing on the supplement of paper PMC10567573, this text covers protein stability index for 94 variants.

B1: ZBED3 (parent)
chain: GPGFHAGTSALWRHLRSAHRRELE
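Note: lentivirally expressed fusions sorted by FACS into six bins by GFP to DsRed ratio, PSI derived from sequencing read proportions per bin multiplied by bin number.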

The variants in the data set derive from B1. Put plainly: protein stability index of a GFP-peptide fusion (GPS, HEK-293T) (PSI 1-6); higher = more stable. To be noted: c terminus: a fixed tail appended.
Take GPGFHAGTSALWRHHRSAHRRELE: the protein stability index amounted to 2.34.

With GPGFHAGTSALWRHARSAHRRELE, the protein stability index turned out to be 1.93.

As for GPGFHAGTSALWRHLRMAHRRELE, the protein stability index amounted to 2.25.

Consider GPGFHAGTSALWRHLRRAHRRELE, for which the protein stability index came out at 2.42.

Regarding GPGFHAGTSALWRHLRLAHRRELE, the protein stability index was 3.44.

In the case of GPGFHAGTSALWRHLRWAHRRELE, the protein stability index was 3.17.

For the variant GPGFHAGTSALWRHLRAAHRRELE, the protein stability index came to 2.14.

Take GPGFHAGTSALWRHLRVAHRRELE: the protein stability index amounted to 1.94.

Turning to GPGFHAGTSALWRHLRGAHRRELE, the protein stability index came to 2.6.

GPGFHAGTSALWRHLRFAHRRELE: the protein stability index is 2.25.

HPGFHAGTSALWRHLRSAHRRELE: the protein stability index is 3.15.

As to FPGFHAGTSALWRHLRSAHRRELE, the protein stability index turned out to be 1.96.

For the variant IPGFHAGTSALWRHLRSAHRRELE, the protein stability index worked out at 2.76.

APGFHAGTSALWRHLRSAHRRELE: the protein stability index stood at 2.7.

Consider NPGFHAGTSALWRHLRSAHRRELE, for which the protein stability index amounted to 3.45.

Regarding MPGFHAGTSALWRHLRSAHRRELE, the protein stability index amounted to 3.18.

VPGFHAGTSALWRHLRSAHRRELE: the protein stability index worked out at 2.9.

In the case of RPGFHAGTSALWRHLRSAHRRELE, the protein stability index was 3.02.

As for GPGFHAGTSALWRHLSSAHRRELE, the protein stability index amounted to 2.21.

On to GPGFHAGTSALWRHLISAHRRELE, for which the protein stability index was found to be 2.12.

On to GPGFHAGTSALWRHLESAHRRELE, for which the protein stability index was determined as 2.41.

For GPGFHAGTSALWRHLDSAHRRELE, the protein stability index amounted to 2.25.

On to GPGFHAGTSALWRHLCSAHRRELE, for which the protein stability index stood at 1.62.

As for GPGFHAGTSALWRHLKSAHRRELE, the protein stability index amounted to 2.41.

On to GPGFHAGTSALWRHLPSAHRRELE, for which the protein stability index was 2.33.

GPGFHAGTSALWRHLRSGHRRELE: the protein stability index is 1.89.

Regarding GPGFHAGTSALWRHLRSFHRRELE, the protein stability index is 2.07.

In the case of GPGFHAGTSALWRHLRSRHRRELE, the protein stability index stood at 3.02.

Consider GPGFHAGTSALWRHLRSHHRRELE, for which the protein stability index is 2.04.

Take GPGFHAGTSALWRHLRSLHRRELE: the protein stability index was 2.79.

Turning to GPGFHAGTSALWRHLRSPHRRELE, the protein stability index turned out to be 3.65.

Regarding GPGFHAGTSALWRHLRSWHRRELE, the protein stability index came to 1.63.

On to GPGFHAGTSALWRHLRSEHRRELE, for which the protein stability index came to 3.1.

For the variant GPGFHAGTSALWRHLRSCHRRELE, the protein stability index was 1.79.

In the case of GPGFHAGTSALWRHLRSNHRRELE, the protein stability index came to 2.45.

Regarding GPGFHAGTSALWRHLRSKHRRELE, the protein stability index was 2.81.

As for GPGFHAGTSALWRHLRSSHRRELE, the protein stability index came to 1.88.

As for GPGFHAGTSANWRHLRSAHRRELE, the protein stability index is 2.3.

GPGFHAGTSASWRHLRSAHRRELE: the protein stability index came out at 2.03.

Turning to GPGFHAGTSAAWRHLRSAHRRELE, the protein stability index is 1.71.

Regarding GPGFHAGTSADWRHLRSAHRRELE, the protein stability index stood at 3.33.

Turning to GPGFHAGTSAVWRHLRSAHRRELE, the protein stability index stood at 1.99.

In the case of GPGFHAGTSARWRHLRSAHRRELE, the protein stability index was determined as 3.19.

For the variant GPGFHAGTSAKWRHLRSAHRRELE, the protein stability index was found to be 3.32.

For GPGFHAGTSAIWRHLRSAHRRELE, the protein stability index was found to be 2.32.

Regarding GPGFHAGTSALWRHLRSAHRREIE, the protein stability index turned out to be 2.19.

As to GPGFHAGTSALWRHLRSAHRREHE, the protein stability index was 2.37.

Consider GPGFHAGTSALWRHLRSAHRREDE, for which the protein stability index was 1.95.

On to GPGFHAGTSALWRHLRSAHRRESE, for which the protein stability index turned out to be 2.36.

In the case of GPGFHAGTSALWRHLRSAHRREGE, the protein stability index was determined as 2.32.

For GPGFHAGTSALWRHLRSAHRRETE, the protein stability index is 1.97.

In the case of GPGFHAGTSALWRHLRSAHRREKE, the protein stability index stood at 2.79.

Turning to GPGFHAGTSALWRHLRSAHRREYE, the protein stability index amounted to 2.42.

As for GPGFHAGTSALWRHLRSAHRREFE, the protein stability index amounted to 2.11.

As for GPGFHAGTSALWRHLRSAHRREVE, the protein stability index stood at 1.92.

As for GPGFHAGTSALWRHLRSAHRREPE, the protein stability index was 1.98.

Take GPGFHAGTSFLWRHLRSAHRRELE: the protein stability index is 2.33.

Consider GPGFHAGTSNLWRHLRSAHRRELE, for which the protein stability index amounted to 2.67.

Regarding GPGFHAGTSILWRHLRSAHRRELE, the protein stability index came to 1.85.

As for GPGFHAGTSQLWRHLRSAHRRELE, the protein stability index came to 2.43.

Turning to GPGFHAGTSDLWRHLRSAHRRELE, the protein stability index amounted to 3.22.

GPGFHAGTSVLWRHLRSAHRRELE: the protein stability index came to 2.6.

Turning to GPGFHAGTSTLWRHLRSAHRRELE, the protein stability index turned out to be 3.08.

In the case of GPGFHAGTSALWRHLRSAHRRELC, the protein stability index stood at 1.65.

Take GPGFHAGTSALWRHLRSAHRRELG: the protein stability index was 1.76.

Regarding GPGFHAGTSALWRHLRSAHRRELP, the protein stability index was 1.93.

On to GPGFHAGTSALWRHLRSAHRRELA, for which the protein stability index was 2.02.

Consider GPGFHAGTSALWRHLRSAHRRELS, for which the protein stability index was 1.97.

For GPGFHAGTSALWRHLRSAHRRELQ, the protein stability index came to 2.51.

For the variant GPGFHAGTSALWRHLRSAHRRELH, the protein stability index was 1.85.

Regarding GPGFHAGTSALGRHLRSAHRRELE, the protein stability index turned out to be 1.64.

As for GPGFHAGTSALTRHLRSAHRRELE, the protein stability index worked out at 2.54.

For the variant GPGFHAGTSALRRHLRSAHRRELE, the protein stability index worked out at 3.35.

Take GPGFHAGTSALYRHLRSAHRRELE: the protein stability index came to 2.63.

GPGFHAGTSALNRHLRSAHRRELE: the protein stability index was determined as 2.3.

For the variant GPGFHAGTSALQRHLRSAHRRELE, the protein stability index turned out to be 2.72.

Regarding GPGAHAGTSALWRHLRSAHRRELE, the protein stability index came out at 3.15.

As to GPGYHAGTSALWRHLRSAHRRELE, the protein stability index came out at 3.37.

For GPGKHAGTSALWRHLRSAHRRELE, the protein stability index amounted to 3.62.

Regarding GPGTHAGTSALWRHLRSAHRRELE, the protein stability index came to 3.75.

Regarding GPGRHAGTSALWRHLRSAHRRELE, the protein stability index worked out at 4.36.

For the variant GPGPHAGTSALWRHLRSAHRRELE, the protein stability index stood at 3.59.

On to GPGWHAGTSALWRHLRSAHRRELE, for which the protein stability index came to 2.22.

Turning to GPGIHAGTSALWRHLRSAHRRELE, the protein stability index was found to be 2.99.

As to GPGHHAGTSALWRHLRSAHRRELE, the protein stability index is 3.16.

As to GPGFHAGESALWRHLRSAHRRELE, the protein stability index turned out to be 2.48.

With GPGFHAGGSALWRHLRSAHRRELE, the protein stability index was 2.26.

GPGFHAGRSALWRHLRSAHRRELE: the protein stability index stood at 2.37.

In the case of GPGFHAGVSALWRHLRSAHRRELE, the protein stability index came to 1.84.

Regarding GPGFHAGNSALWRHLRSAHRRELE, the protein stability index amounted to 2.91.

In the case of GPGFHAGSSALWRHLRSAHRRELE, the protein stability index was found to be 2.89.

Turning to GPGFHAGHSALWRHLRSAHRRELE, the protein stability index was 2.4.

Regarding GPGFHAGKSALWRHLRSAHRRELE, the protein stability index was found to be 2.5.

In the case of GPGFHAGLSALWRHLRSAHRRELE, the protein stability index worked out at 2.52.
